Five compounds from US12552837B2, “Bicyclic peptide ligands with detectable moieties and uses thereof” (BicycleRD Limited, priority 2017, dated 2026) can be followed below.

One series deals with HT1080 tumor. The series can be described thus: Organ distribution of 177Lu-labelled peptides in HT1080 xenograft mice. Type of series: in vivo, BALB/c nu/nu mice. Here is the method:
(§1) General procedure for radiolabelling with Lu-177.
(§2) • 50 μL 0.25 M Na-Acetate buffer pH 5.2+0.1% Tween 20; • 10 μL [Lu-177]LuCl3 in 0.05 M HCl; and • 2 μL of the diluted peptide (2 nmols). […]
(§3) Organ distribution studies, general method: For organ distribution, the respective dose is prepared by dilution of the labeling reaction mixture in injection buffer (0.25 M Na-Acetate pH 7+0.05% Tween20). The ^177Lu-radiolabeled peptide was injected via the tail vein of the nu/nu mice (50 kBq per mouse), transplanted with the respective cell line. At indicated time points after injection the animals were sacrificed. Blood, heart, lung, spleen, liver, kidney, muscle, brain, femur, and the tumor were dissected, blotted dry, and weighed. The radioactivity was measured with a γ-counter (CobraII; Canberra Packard) along with a sample of the injection solution to calculate the percentage injected dose per gram of tissue (% ID/g).
(§4) The γ- and β-emitter ^177LuCl3 (NEZ307D, Perkin Elmer, in 0.04 M HCl), with a t1/2 of 6.7 days was used for both in vivo biodistribution and internalization studies. Labeling reactions were performed by adding 10 μL ^177LuCl3 (˜10 MBq) in 50 mM HCl, 2 μL of the diluted peptide (1 mM solution in 50 mM HEPES buffer pH 7+0.1% Tween 20 diluted from a 10 mM DMSO stock) to 50 μL 50 mM HEPES buffer pH 7 supplemented with 0.1% Tween 20. The reaction mixture was incubated at 98° C. for 10 minutes. The radiochemical yield (RCY) was determined using high performance liquid chromatography (HPLC) system equipped with a Latek P402 (Latek, Eppelheim, Germany), a HITACHI variable UV detector (absorbance was measured at 214 and 254 nm) and a gamma detector (Bioscan, WA, USA), using a Chromolith RP-18 column (100×4.6 mm; Merck). The analytical HPLC run was performed at 4 mL/min, using a linear A (0.1% trifluoroacetic acid (TFA) in water) to B (0.1% TFA in acetonitrile) gradient (0% B to 100% B in 6 min). Thin-layer chromatography was performed in parallel to confirm the results of the radio-HPLC. The RCY was generally >95%, and thus, the output of labelling reactions was directly diluted with the appropriate buffer and further unlabeled peptide if required, to use in subsequent experiments.
(§5) 5×10^6 cells of HT1080 were subcutaneously inoculated into the right trunk of male 6-week-old BALB/c nu/nu mice (Charles River Laboratories). The tumors were grown for approximately 1 week, to a maximum size of ˜200 mm^3. Respective doses were prepared by mixing a fixed quantity of 5 pmoles ^177Lu labelled peptides (at approx. 50 kBq) with different quantities of non-labelled peptide (derived from 1 mM stock solution in 0.25 M sodium acetate pH 7+0.05% Tween20) in 100 μL injection buffer (0.25 M sodium acetate pH 7+0.05% Tween20). 3 animals were used per dose and timepoint. Radiolabelled peptide solutions were injected via the tail vein, followed by sacrifice at various time points. Organs of interest (blood, heart, lung, spleen, liver, kidney, muscle, small intestine, brain, HT1080 tumor) were dissected, blotted dry, and weighed. The radioactivity was measured using a gamma counter and calculated as % ID/g.

Experiment in series [1]: as above
Type of series: in vivo, BALB/c nu/nu mice. The note with it: male, BALB/c nu/nu, mouse, HT1080 tumor, iv, total radioactivity; 1 h p.i. of 150 pmoles. The protocol:
as §1, §2, §3, §4, §5

The target in the next series is MT1-MMP hemopexin domain (Homo sapiens, UniProt P50281). As to the kind of experiment: Fluorescence polarization direct binding / competition assay to MT1-MMP hemopexin domain. The protocol:
Direct Binding Fluorescence Polarization or Anisotropy Assays are performed by titrating a constant concentration of fluorescent tracer (here, the fluoresceinated bicyclic peptide to be studied) with its binding partner (here, the MT1-MMP hemopexin domain). As the concentration of binding partner increases during the titration, the polarization signal changes in proportion to the fraction of bound and unbound material. This allows determination of […] (Kd) quantitatively. Assay data can be fit using standard ligand binding equations.
Typically, concentrations of the tracer are ideally well below the Kd of the tracer: titrant pair, and concentrations chosen are usually at ˜1 nM or less. The titrant (binding partner) concentration is varied from 0.1 nM up to typically 5 μM. The range is chosen such that the maximum change in fluorescent polarization can be observed. Buffers employed are phosphate buffered saline in the presence of 0.01% Tween. Experiments were run in black 384 well low-bind/low volume plates (Corning 3820), and the fluorescent polarization signal was measured using a BMG Pherastar FS plate reader. Fluorescent tracers referred to in the text are bicyclic peptides that have been fluoresceinated using 5,6-carboxyfluorescein. Fluoresceination may be performed on the N-terminal amino group of the peptide, which is separated from the bicycle core sequence by a sarcosine spacer (usually Sar10 (SEQ ID NO: 73)). This can be done during Fmoc solid phase synthesis or post-synthetically (after cyclization with the molecular scaffold reagent and purification) if the N-terminal amino group is unique to the peptide. Fluoresceination can also be performed on the C-terminus, usually on a Lysine introduced as the first C-terminal residue, which is then separated from the bicycle core sequence by a sarcosine spacer (usually Sar6 (SEQ ID NO: 69)). Thus, N-terminal tracers can have a molecular format described as Fluo-Ala-Sar10-A (SEQ ID NO: 72) (BicycleCoreSequence), and (BicycleCoreSequence)-A-Sar6-K (Fluo) (SEQ ID NO: 67) for a C-terminally fluoresceinated construct.
Fluorescent tracers used in the Examples are A-(17-69)-A-Sar6-K (Fluo) (SEQ ID NO: 67), A-(17-69-07)-A-Sar6-K (Fluo) (SEQ ID NO: 67), and A-(17-69-12)-A-Sar6-K (Fluo) (SEQ ID NO: 67). Due to the acidic nature of the 17-69 fluorescent peptides, they were typically prepared as concentrated DMSO stocks, from which dilution were prepared in 100 mM Tris pH 8 buffer.
Due to their high affinities to the MT1-MMP Hemopexin domain (PEX), the fluoresceinated derivatives of 17-69-07 and 17-69-12 (denoted as 17-69-07-N040 and 17-69-12-N005, respectively) can be used for competition experiments (using FP for detection). […] Dissociation of the complex can be measured quantitatively, and the Kd of the competitor (titrant) to the target protein determined. The advantage of the competition method is that the affinities of non-fluoresceinated bicyclic peptides can be determined accurately and rapidly.
Subsequently, the non-fluorescent competitor bicyclic peptide (usually just the bicycle core sequence) is titrated, such that it displaces the fluorescent tracer from the target protein. The displacement of the tracer is measured and associated with a drop in fluorescence polarization. The drop in fluorescence polarization is proportional to the fraction of target protein bound with the non-fluorescent titrant, and thus is a measure of the affinity of titrant to target protein. […]

The structures appear in SMILES notation. *1 amine or outer side, *2 acyl side, *3 side chain or, on linkers, in order; H or OH if unused. Where a SMILES comes first, the peptide text is derived from it. Bridges are numbered along the chain shown (N, C = ends). [ ]: non-standard residue; d: D form. The star is where a group is joined. DOTA = O=C(O)CN1CCN(CC(=O)O)CCN(CC(=O)*)CCN(CC(=O)O)CC1; 1Nal = N[C@@H](Cc1cccc2ccccc12)C(=O)O; TBMB = c1c(C[*:1])cc(C[*:3])cc1C[*:2]; Palmitoyl = CCCCCCCCCCCCCCCC(=O)*; Tle = CC(C)(C)[C@H](N)C(=O)O; Aib = CC(C)(N)C(=O)O; βAla = NCCC(=O)O; Sar = CNCC(=O)O

`CC(C)[C@H](NC(=O)[C@@H](CC(=O)O)NC(=O)[C@H](Cc1c[nH]cn1)NC(=O)CN(C)C(=O)CN(C)C(=O)CN(C)C(=O)CN(C)C(=O)CN(C)C(=O)CN(C)C(=O)CN(C)C(=O)CN(C)C(=O)CN(C)C(=O)CN(C)C(=O)CCNC(=O)CN1CCN(CC(=O)O)CCN(CC(=O)O)CCN(CC(=O)O)CC1)C(=O)N1CCC[C@H]1C(=O)N[C@H]1CSCc2cc3cc(c2)CSC[C@H](NC(=O)[C@H](Cc2cccc4ccccc24)NC(=O)[C@H](Cc2ccccc2)NC(=O)C(C)(C)NC(=O)CNC(=O)[C@H](Cc2cccc4ccccc24)NC(=O)[C@@H]2CCCN2C1=O)C(=O)N1CCC[C@H]1C(=O)N[C@@H](C(C)(C)C)C(=O)N[C@@H](CC(N)=O)C(=O)N[C@@H](CCCNC(=N)N)C(=O)NC(C)(C)C(=O)N[C@H](CC(=O)O)C(=O)N[C@H](C(N)=O)CSC3` [I-17] ({DOTA-βAla}-[Sar][Sar][Sar][Sar][Sar][Sar][Sar][Sar][Sar][Sar]H[dD]VPCP[1Nal]G[Aib]F[1Nal]CP[Tle]NR[Aib][dD]C-NH2; linker 15-22-29 via TBMB): in the series on HT1080 tumor (1 h post injection), the “blocking of tumor uptake at a dose of 500 pmoles” value is on record as “slightly blocked” and the “blocking of tumor uptake using 5 nmoles” value is “nearly completely blocked”.

As for `C[C@H](NC(=O)CN(C)C(=O)CN(C)C(=O)CN(C)C(=O)CN(C)C(=O)CN(C)C(=O)CN(C)C(=O)CN(C)C(=O)CN(C)C(=O)CN(C)C(=O)CN(C)C(=O)CCNC(=O)CN1CCN(CC(=O)O)CCN(CC(=O)O)CCN(CC(=O)O)CC1)C(=O)N[C@H]1CSCc2cc3cc(c2)CSC[C@H](NC(=O)[C@@H](C)NC(=O)[C@H](Cc2cccc4ccccc24)NC(=O)[C@H](CCC(=O)O)NC(=O)[C@H](CC(N)=O)NC(=O)[C@@H](C)NC1=O)C(=O)N[C@@H](CCC(=O)O)C(=O)N[C@@H](CC(=O)O)C(=O)N[C@@H](Cc1ccccc1)C(=O)N[C@@H](Cc1ccc(O)cc1)C(=O)N[C@@H](CC(=O)O)C(=O)N[C@@H](C(C)(C)C)C(=O)N[C@H](C(N)=O)CSC3` [I-24] ({DOTA-βAla}-[Sar][Sar][Sar][Sar][Sar][Sar][Sar][Sar][Sar][Sar]AC[dA]NE[1Nal][dA]CEDFYD[Tle]C-NH2; linker 12-18-25 via TBMB), in the series with HT1080 tumor (1 h post injection), the “blocking of tumor uptake at a dose of 500 pmoles” value is on record as “slightly blocked”, the “blocking of tumor uptake using 5 nmoles” value is recorded as “nearly completely blocked”, the “signal in the tumor compared to I-23” value is listed as “slightly lower” and the “tumor uptake compared to 17-69-07-N144” value is “significantly greater”. In series [1], the tissue uptake at 1 h was determined as 7.04 ± 2.83 %ID/g. On MT1-MMP hemopexin domain, this compound registered a Kd of 0.00137 ± 0.00053 µM.

Take `C[C@H](NC(=O)CN1CCN(CC(=O)O)CCN(CC(=O)O)CCN(CC(=O)O)CC1)C(=O)N[C@H]1CSCc2cc3cc(c2)CSC[C@H](NC(=O)[C@H](C)NC(=O)[C@H](Cc2cccc4ccccc24)NC(=O)[C@H](CCC(=O)O)NC(=O)[C@H](CC(N)=O)NC(=O)[C@@H](C)NC1=O)C(=O)N[C@@H](C)C(=O)N[C@@H](CC(=O)O)C(=O)N[C@@H](Cc1ccccc1)C(=O)N[C@@H](Cc1ccc(O)cc1)C(=O)N[C@@H](CC(=O)O)C(=O)N[C@@H](C(C)(C)C)C(=O)N[C@H](C(N)=O)CSC3` [I-26] ({DOTA}-AC[dA]NE[1Nal]ACADFYD[Tle]C-NH2; linker 2-8-15 via TBMB): the “tumor uptake compared with the binding variant I-23” value in the series with HT1080 tumor (organ distribution, FIG. 8) is reported as “essentially absent”. Besides, the dissociation constant Kd at MT1-MMP hemopexin domain is above 5 µM.

As for `C[C@H](NC(=O)CN(C)C(=O)CN(C)C(=O)CN(C)C(=O)CN(C)C(=O)CN(C)C(=O)CN(C)C(=O)CN(C)C(=O)CN(C)C(=O)CN(C)C(=O)CN(C)C(=O)CCNC(=O)CN1CCN(CC(=O)O)CCN(CC(=O)O)CCN(CC(=O)O)CC1)C(=O)N[C@H]1CSCc2cc3cc(c2)CSC[C@H](NC(=O)[C@H](C)NC(=O)[C@H](Cc2cccc4ccccc24)NC(=O)[C@H](CCC(=O)O)NC(=O)[C@H](CC(N)=O)NC(=O)[C@@H](C)NC1=O)C(=O)N[C@@H](C)C(=O)N[C@@H](CC(=O)O)C(=O)N[C@@H](Cc1ccccc1)C(=O)N[C@@H](Cc1ccc(O)cc1)C(=O)N[C@@H](CC(=O)O)C(=O)N[C@@H](C(C)(C)C)C(=O)N[C@H](C(N)=O)CSC3` [I-27] ({DOTA-βAla}-[Sar][Sar][Sar][Sar][Sar][Sar][Sar][Sar][Sar][Sar]AC[dA]NE[1Nal]ACADFYD[Tle]C-NH2; linker 12-18-25 via TBMB), the tissue uptake at 1 h in series [1] stood at 0.28 ± 0.05 %ID/g. The compound further displayed a Kd on MT1-MMP hemopexin domain above 5 µM.

Take `CCCCCCCCCCCCCCCC(=O)NCCC(=O)N(C)CC(=O)N(C)CC(=O)N(C)CC(=O)N(C)CC(=O)N(C)CC(=O)N[C@@H](CCCCNC(=O)CN1CCN(CC(=O)O)CCN(CC(=O)O)CCN(CC(=O)O)CC1)C(=O)N(C)CC(=O)N(C)CC(=O)N(C)CC(=O)N(C)CC(=O)N(C)CC(=O)N(C)CC(=O)N(C)CC(=O)N(C)CC(=O)N(C)CC(=O)N(C)CC(=O)N[C@@H](C)C(=O)N[C@H]1CSCc2cc3cc(c2)CSC[C@H](NC(=O)[C@H](C)NC(=O)[C@H](Cc2cccc4ccccc24)NC(=O)[C@H](CCC(=O)O)NC(=O)[C@H](CC(N)=O)NC(=O)[C@@H](C)NC1=O)C(=O)N[C@@H](C)C(=O)N[C@@H](CC(=O)O)C(=O)N[C@@H](Cc1ccccc1)C(=O)N[C@@H](Cc1ccc(O)cc1)C(=O)N[C@@H](CC(=O)O)C(=O)N[C@@H](C(C)(C)C)C(=O)N[C@H](C(N)=O)CSC3` [I-29] ({Palmitoyl-βAla}-[Sar][Sar][Sar][Sar][Sar]K(DOTA)[Sar][Sar][Sar][Sar][Sar][Sar][Sar][Sar][Sar][Sar]AC[dA]NE[1Nal]ACADFYD[Tle]C-NH2; linker 18-24-31 via TBMB): the tumour uptake in the series on HT1080 tumor (750 pmole per mouse, 6 hour timepoint) is 4.8%.
